Test results from publication PMC8042219, “Expression of Novel L-Leucine Dehydrogenase and High-Level Production of L-Tert-Leucine Catalyzed by Engineered Escherichia coli” (Frontiers in Bioengineering and Biotechnology, 2021).

T1: BbLeuDH (Bdellovibrio bacteriovorus, UniProt A0A1Z3N8C0)
T1 construct: gene B9G79_08965
T1 sequence (A0A1Z3N8C0 1-376): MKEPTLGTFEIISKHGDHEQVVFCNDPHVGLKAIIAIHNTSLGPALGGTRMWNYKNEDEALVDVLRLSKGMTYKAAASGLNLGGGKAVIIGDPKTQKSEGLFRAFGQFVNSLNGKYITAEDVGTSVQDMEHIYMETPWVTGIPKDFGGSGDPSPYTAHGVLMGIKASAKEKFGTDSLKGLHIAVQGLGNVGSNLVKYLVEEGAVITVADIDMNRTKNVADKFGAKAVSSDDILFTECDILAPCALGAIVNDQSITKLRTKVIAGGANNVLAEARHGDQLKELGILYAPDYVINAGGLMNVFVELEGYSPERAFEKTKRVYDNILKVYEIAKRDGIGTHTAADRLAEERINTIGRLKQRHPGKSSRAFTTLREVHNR

T2: TbLeuDH (Staphylospora marina, UniProt Z9JLC0NN60)
T2 sequence (Z9JLC0NN60 1-365): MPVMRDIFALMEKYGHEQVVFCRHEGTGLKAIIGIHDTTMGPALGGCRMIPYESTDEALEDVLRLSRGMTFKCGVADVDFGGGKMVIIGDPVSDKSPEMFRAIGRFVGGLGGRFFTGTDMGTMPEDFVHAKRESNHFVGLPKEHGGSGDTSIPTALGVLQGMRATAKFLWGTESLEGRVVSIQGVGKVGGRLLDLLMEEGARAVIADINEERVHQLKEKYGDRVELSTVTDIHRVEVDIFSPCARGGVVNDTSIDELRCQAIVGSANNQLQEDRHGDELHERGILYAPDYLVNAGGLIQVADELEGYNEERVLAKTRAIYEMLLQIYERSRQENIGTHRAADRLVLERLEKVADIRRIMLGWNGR

T3: CsLeuDH (Caldanaerobacter subterraneus, UniProt U5CQF4)
T3 construct: gene O163_07585
T3 sequence (U5CQF4 1-355): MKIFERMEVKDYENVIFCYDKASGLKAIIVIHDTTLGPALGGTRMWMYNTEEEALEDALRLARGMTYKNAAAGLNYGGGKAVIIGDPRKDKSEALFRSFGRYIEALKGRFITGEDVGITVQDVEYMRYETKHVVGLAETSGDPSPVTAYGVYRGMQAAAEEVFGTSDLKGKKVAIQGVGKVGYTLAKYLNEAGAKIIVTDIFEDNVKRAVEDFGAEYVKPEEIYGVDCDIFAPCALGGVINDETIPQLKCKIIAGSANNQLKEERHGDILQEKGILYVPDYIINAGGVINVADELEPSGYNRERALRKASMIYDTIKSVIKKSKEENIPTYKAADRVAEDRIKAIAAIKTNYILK

B1: PfLeuDH (Planifilum fimeticola) (protein)
chain: MKWFDYMERYDYEQLIFCQDKNSGLKAIIAIHDTTLGPALGGVRMWKYDSEEEAIVDALRLARGMTYKAAAAGLNLGGGKTVIIGDPRKDKNEEMFRALGRFIQGLNGRYITAEDVGTTEEDMDIIHQETRFVTGVSPAFGSSGNPSPVTAYGVYRGMKAAAKIAFGSDSLEGKTVAVQGVGSVAYHLCKHLHEEGARLIVTDIVRENVERAVRDFGAESVAPDKIYDVECDIFSPCALGAIINDETLPRLKCRVVAGSANNQLKEERHGDRLEELGIIYVPDYVINAGGLINVADELFGYNRERAMKKVETIYDNVLRVFEIAKRDGIPSYKAADRMAEERIESLTRSRSTFLRNERNVLNMV

What was measured:
BbLeuDH = target: T1, BbLeuDH; test: NADH absorbance at […] nm, specific activity; assay type: biochemical; settings: reductive amination, 2 mM TMP, 0.1 mM NADH, 500 mM NH4Cl-NH3 buffer pH 9.5, 30 °C
TbLeuDH = target: T2, TbLeuDH; test: NADH absorbance at […] nm, specific activity; assay type: biochemical; settings: reductive amination, 2 mM TMP, 0.1 mM NADH, 500 mM NH4Cl-NH3 buffer pH 9.5, 30 °C
CsLeuDH = target: T3, CsLeuDH; test: NADH absorbance at […] nm, specific activity; assay type: biochemical; settings: reductive amination, 2 mM TMP, 0.1 mM NADH, 500 mM NH4Cl-NH3 buffer pH 9.5, 30 °C
purified protein [1] = substrate: CC(C)(C)C(=O)C(=O)O; test: purified protein; assay type: biochemical, Planifilum fimeticola; settings: reductive amination, TMP varied 1-20 mM, 0.3 mM NADH; standard assay 500 mM NH4Cl-NH3 buffer pH 9.5, 30 °C; pH 9.5; 30.0 °C
purified protein [2] = substrate: CC(C)C[C@H](N)C(=O)O; test: purified protein; assay type: biochemical, Planifilum fimeticola; settings: oxidative deamination, L-leucine varied 0.1-3 mM, 1 mM NAD+
purified protein [3] = substrate: NC(=O)C1=CN([C@@H]2O[C@H](COP(=O)(O)OP(=O)(O)OC[C@H]3O[C@@H](n4cnc5c(N)ncnc54)[C@H](O)[C@@H]3O)[C@@H](O)[C@H]2O)C=CC1; test: purified protein; assay type: biochemical, Planifilum fimeticola; settings: reductive amination, NADH varied 0.05-0.35 mM, 40 mM TMP; standard assay 500 mM NH4Cl-NH3 buffer pH 9.5, 30 °C; pH 9.5; 30.0 °C; varied: cofactor
purified protein [4] = substrate: NC(=O)c1ccc[n+]([C@@H]2O[C@H](COP(=O)(O)OP(=O)(O)OC[C@H]3O[C@@H](n4cnc5c(N)ncnc54)[C@H](O)[C@@H]3O)[C@@H](O)[C@H]2O)c1; test: purified protein; assay type: biochemical, Planifilum fimeticola; settings: oxidative deamination, NAD+ varied 0.1-4 mM, 4 mM L-leucine; varied: cofactor

Row | Molecule | NADH absorbance at 340 nm, specific activity (BbLeuDH) | NADH absorbance at 340 nm, specific activity (TbLeuDH) | NADH absorbance at 340 nm, specific activity (CsLeuDH) | Km (purified protein [1]) | Vmax (purified protein [1]) | kcat (purified protein [1]) | kcat/Km (purified protein [1]) | Km (purified protein [2]) | Vmax (purified protein [2]) | kcat (purified protein [2]) | kcat/Km (purified protein [2]) | Km (purified protein [3]) | Vmax (purified protein [3]) | kcat (purified protein [3]) | kcat/Km (purified protein [3]) | Km (purified protein [4]) | Vmax (purified protein [4]) | kcat (purified protein [4]) | kcat/Km (purified protein [4])
1 | CC(C)(C)C(=O)C(=O)O [Trimethylpyruvate] | All four soluble leucine dehydrogenases have catalytic activity for TMP | All four soluble leucine dehydrogenases have catalytic activity for TMP | All four soluble leucine dehydrogenases have catalytic activity for TMP |  |  |  |  |  |  |  |  |  |  |  |  |  |  |  | 
2 | B1 |  |  |  | 3080 µM | 58.6 µmol/min/mg | 39.1 s⁻¹ | 12700 M⁻¹ s⁻¹ | 100 µM | 3.49 µmol/min/mg | 2.33 s⁻¹ | 23300 M⁻¹ s⁻¹ | 60 µM | 9.09 µmol/min/mg | 6.06 s⁻¹ | 101000 M⁻¹ s⁻¹ | 110 µM | 2.72 µmol/min/mg | 1.81 s⁻¹ | 16400 M⁻¹ s⁻¹
